Test results from article PMC2628434.
Where two headings read alike, the source gives them in different places.

T1: LuxR (Vibrio harveyi, UniProt P21308 1-205)
T1 sequence: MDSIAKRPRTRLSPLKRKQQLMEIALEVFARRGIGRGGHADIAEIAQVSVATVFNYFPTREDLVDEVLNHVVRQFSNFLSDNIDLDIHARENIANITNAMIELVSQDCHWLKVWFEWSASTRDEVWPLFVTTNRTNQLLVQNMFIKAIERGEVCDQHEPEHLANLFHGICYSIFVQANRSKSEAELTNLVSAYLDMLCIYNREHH


Tests used:
LuxR [1] = target: T1, LuxR; assay: fluorescence anisotropy
LuxR [2] = target: T1, LuxR; assay: fluorescence anisotropy; remark: listed apart in the source

Binder | Kd (LuxR [1]) | Kd (LuxR [2])
VPA0197/8 (dsDNA) DNA 1: TAAGGTAAATAATTATTTTAACAATAATTAA DNA 2: TTAATTATTGTTAAAATAATTATTTACCTTA | 68 ± 11 nM | 
VPA0649 (dsDNA) DNA 1: ATTCCTTATTTACCAATTTATAAACTATGAA DNA 2: TTCATAGTTTATAAATTGGTAAATAAGGAAT | 30 ± 8 nM | 
qrgB WT (dsDNA) DNA 1: TGTTTATATTGAGTTCACAATCAATACCGATCA DNA 2: TGATCGGTATTGATTGTGAACTCAATATAAACA | 27 ± 3 nM | 
qrgB A17C (dsDNA) DNA 1: TGTTTATATTGAGTTCACAATCCATACCGATCA DNA 2: TGATCGGTATGGATTGTGAACTCAATATAAACA | 43 ± 6 nM | 
qrgB A6C (dsDNA) DNA 1: TGTTTATATTGCGTTCACAATCAATACCGATCA DNA 2: TGATCGGTATTGATTGTGAACGCAATATAAACA | 44 ± 5 nM | 
qrgB A2C (dsDNA) DNA 1: TGTTTATCTTGAGTTCACAATCAATACCGATCA DNA 2: TGATCGGTATTGATTGTGAACTCAAGATAAACA | 27 ± 4 nM | 
qrgB A2C A17C (dsDNA) DNA 1: TGTTTATCTTGAGTTCACAATCCATACCGATCA DNA 2: TGATCGGTATGGATTGTGAACTCAAGATAAACA | 242 ± 46 nM | 
VP0944/5 (dsDNA) DNA 1: TAGAGTTAGTATCAATTTAATCAATAAGATA DNA 2: TATCTTATTGATTAAATTGATACTAACTCTA | 30 ± 7 nM | 
Consensus (dsDNA) DNA 1: ACTGATATTGATAAATTTATCAATAATGACT DNA 2: AGTCATTATTGATAAATTTATCAATATCAGT | 24 ± 4 nM | 
Negative control (dsDNA) DNA 1: ACTGACTGACTGACTGACTGACTGACTGACT DNA 2: AGTCAGTCAGTCAGTCAGTCAGTCAGTCAGT |  | 136 ± 63 nM
qrr4 A17C (dsDNA) DNA 1: CATTTTTCTGATAAATGTATTCGTAGCAATG DNA 2: CATTGCTACGAATACATTTATCAGAAAAATG | 38 ± 5 nM | 
qrr4 A6C (dsDNA) DNA 1: CATTTTTCTGCTAAATGTATTAGTAGCAATG DNA 2: CATTGCTACTAATACATTTAGCAGAAAAATG | 68 ± 11 nM | 
qrr4 WT (dsDNA) DNA 1: CATTTTTCTGATAAATGTATTAGTAGCAATG DNA 2: CATTGCTACTAATACATTTATCAGAAAAATG | 35 ± 4 nM | 
qrr4 A6C A17C (dsDNA) DNA 1: CATTTTTCTGCTAAATGTATTCGTAGCAATG DNA 2: CATTGCTACGAATACATTTAGCAGAAAAATG | 112 ± 27 nM | 
qrr4 T15C (dsDNA) DNA 1: CATTTTTCTGATAAATGTACTAGTAGCAATG DNA 2: CATTGCTACTAGTACATTTATCAGAAAAATG | 27 ± 4 nM | 
VP0057/8 (dsDNA) DNA 1: AACATTACTGATAAATTAGATATTTATGGCT DNA 2: AGCCATAAATATCTAATTTATCAGTAATGTT | 47 ± 8 nM | 
VPA0226/7 (dsDNA) DNA 1: ACCAAAATTGATAAAATGAATAATTAGATAT DNA 2: ATATCTAATTATTCATTTTATCAATTTTGGT | 73 ± 12 nM | 
